The values that follow come from patent US20040209839, “Human peroxisome proliferator activated receptor gamma” (published 2004).

For data set [1], the target named is hPPARgamma/hRXRalpha heterodimer (Homo sapiens, UniProt P37231;P19793 P37231:31-505,P19793:1-462). As to the kind of experiment: EMSA; strong retarded complex. The settings on record: tags: hPPARgamma in vitro translated, hRXRalpha baculovirus/Sf21 expressed, label: 32P end. A general note: In EMSA bound probe runs differently from free probe, usually more slowly.

In the next data set the target is hPPARgamma (Homo sapiens, UniProt P37231 SEQ:20-494). The experiment in a line: EMSA; hPPARgamma alone, no complex. The settings on record: tags: T3 coupled reticulocyte lysate (Promega), label: 32P end.
Chain of hPPARgamma (P37231 31-505): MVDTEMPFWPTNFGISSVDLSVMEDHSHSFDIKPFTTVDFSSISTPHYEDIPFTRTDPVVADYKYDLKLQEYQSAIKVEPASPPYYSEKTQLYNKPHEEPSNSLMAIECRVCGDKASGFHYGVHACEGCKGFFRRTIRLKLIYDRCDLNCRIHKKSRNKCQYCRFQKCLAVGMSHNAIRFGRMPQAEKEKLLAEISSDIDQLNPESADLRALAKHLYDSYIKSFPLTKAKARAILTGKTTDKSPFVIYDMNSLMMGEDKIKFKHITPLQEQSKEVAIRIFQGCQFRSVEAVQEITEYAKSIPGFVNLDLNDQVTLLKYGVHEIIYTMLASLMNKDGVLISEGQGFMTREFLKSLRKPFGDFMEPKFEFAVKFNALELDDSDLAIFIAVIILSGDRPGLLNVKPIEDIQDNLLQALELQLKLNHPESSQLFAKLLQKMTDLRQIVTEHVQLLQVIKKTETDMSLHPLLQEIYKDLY

Chain of hPPARgamma/hRXRalpha heterodimer (P37231 31-505, chain 1 of 2): as the sequence (P37231 31-505) above
Chain of hPPARgamma/hRXRalpha heterodimer (P19793 whole entry, chain 2 of 2): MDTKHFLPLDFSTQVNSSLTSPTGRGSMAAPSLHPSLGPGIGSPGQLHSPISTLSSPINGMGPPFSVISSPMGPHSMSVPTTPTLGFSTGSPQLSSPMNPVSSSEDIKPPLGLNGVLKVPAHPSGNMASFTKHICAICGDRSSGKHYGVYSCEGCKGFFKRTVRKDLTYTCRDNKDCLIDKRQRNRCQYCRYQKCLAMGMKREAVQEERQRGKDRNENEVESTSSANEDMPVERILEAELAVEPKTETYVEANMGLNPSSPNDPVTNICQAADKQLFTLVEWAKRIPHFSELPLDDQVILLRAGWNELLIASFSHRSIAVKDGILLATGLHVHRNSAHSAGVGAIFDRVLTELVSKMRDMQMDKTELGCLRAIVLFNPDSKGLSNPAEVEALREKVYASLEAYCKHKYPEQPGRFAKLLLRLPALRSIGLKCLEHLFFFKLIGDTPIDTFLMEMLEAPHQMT

B1: hydratase (bifunctional enzyme) PPRE (dsDNA)
DNA 1: GATCCCTTTGACCTATTGAACTATTACCTACATTA
DNA 2: TAATGTAGGTAATAGTTCAATAGGTCAAAGGGATC
Turning to B1, the binding result in data set [1] was “binds”; in the data set with hPPARgamma it was “no binding”.

B2: ApoA1 A site (dsDNA)
DNA 1: GATCCCCACTGAACCCTTGACCCCTGCCCTGCAGCA
DNA 2: TGCTGCAGGGCAGGGGTCAAGGGTTCAGTGGGGATC
Turning to B2, the binding result in data set [1] is “binds”; in the data set with hPPARgamma, “no binding”.

B3: AOX PPRE (dsDNA)
DNA 1: CTAGCGATATCATGACCTTTGTCCTAGGCCTC
DNA 2: CTAGGAGGCCTAGGACAAAGGTCATGATATCG
Turning to B3, the binding result in data set [1] (5' CTAG overhangs) is “binds”; with hPPARgamma (5' CTAG overhangs), “no binding”.
